T1: AP2-G D1 (Plasmodium falciparum, UniProt Q8I5I9 2123-2245)
T1 sequence: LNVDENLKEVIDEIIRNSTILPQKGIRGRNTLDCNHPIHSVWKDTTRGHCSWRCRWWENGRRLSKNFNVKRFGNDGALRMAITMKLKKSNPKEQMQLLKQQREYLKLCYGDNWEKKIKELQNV


Target: T1, AP2-G D1
Test: gcPBM; about 25 ug protein; PBS, 1% milk, 0.2 mg/ml BSA, salmon testes DNA, 0.03% Triton X-100
Conditions: tags: N-terminal GST (pGEX-4T-1), kept; label: surface-attached array probe

Row | Binder | binding signal
1 | XGTACX_negctrl_site68 (dsDNA) DNA 1: AATATAGAAATAAATATATCACATTTGTGTTTAAAC DNA 2: GTTTAAACACAAATGTGATATATTTATTTCTATATT | 9.45 ln median PBM intensity, better of two orientations
2 | XGTACX_negctrl_site364 (dsDNA) DNA 1: ATAAAATATTAGACATTTATTAATATTACACATATC DNA 2: GATATGTGTAATATTAATAAATGTCTAATATTTTAT | 9.58 ln median PBM intensity, better of two orientations
3 | XGTACX_negctrl_site425 (dsDNA) DNA 1: ATTTGTATATAATATATATAATTTTTTTTTTTTGTT DNA 2: AACAAAAAAAAAAAATTATATATATTATATACAAAT | 9.44 ln median PBM intensity, better of two orientations
4 | XGTACX_negctrl_site298 (dsDNA) DNA 1: AGTTTTTATTAAAACAAAATTTAATTATAACGTTGA DNA 2: TCAACGTTATAATTAAATTTTGTTTTAATAAAAACT | 9.58 ln median PBM intensity, better of two orientations
5 | XGTACX_negctrl_site390 (dsDNA) DNA 1: TTATGAATATTGATGTATAAAAAAATATATATGTTA DNA 2: TAACATATATATTTTTTTATACATCAATATTCATAA | 9.46 ln median PBM intensity, better of two orientations
6 | XGTACX_negctrl_site207 (dsDNA) DNA 1: TTTTTATTTAATATTTTAAAAAAAAATCATTTTTAA DNA 2: TTAAAAATGATTTTTTTTTAAAATATTAAATAAAAA | 9.53 ln median PBM intensity, better of two orientations
7 | XGTACX_negctrl_site528 (dsDNA) DNA 1: TTTTATCAAATATTTATTTTATACATAAATATTTAT DNA 2: ATAAATATTTATGTATAAAATAAATATTTGATAAAA | 9.58 ln median PBM intensity, better of two orientations
8 | XGTACX_negctrl_site434 (dsDNA) DNA 1: ATGCAACTATATATATATATTATATGTATGAATAAT DNA 2: ATTATTCATACATATAATATATATATATAGTTGCAT | 9.5 ln median PBM intensity, better of two orientations
9 | XGTACX_negctrl_site428 (dsDNA) DNA 1: AACAAGAAAAAAAAAAAAAAAAAAAAAAAATATTTT DNA 2: AAAATATTTTTTTTTTTTTTTTTTTTTTTTCTTGTT | 9.36 ln median PBM intensity, better of two orientations
10 | XGTACX_negctrl_site414 (dsDNA) DNA 1: TATCTTTTTATTTTTTATTTTTTTTTTATAATTTAC DNA 2: GTAAATTATAAAAAAAAAATAAAAAATAAAAAGATA | 9.42 ln median PBM intensity, better of two orientations
11 | XGTACX_negctrl_site606 (dsDNA) DNA 1: TTTTTATATATATGTATAAATATTTTTTCTATTTAT DNA 2: ATAAATAGAAAAAATATTTATACATATATATAAAAA | 9.44 ln median PBM intensity, better of two orientations
12 | XGTACX_negctrl_site307 (dsDNA) DNA 1: CTTTATCTTCTCACGAAGATTGAATAAGGTATTCTT DNA 2: AAGAATACCTTATTCAATCTTCGTGAGAAGATAAAG | 9.6 ln median PBM intensity, better of two orientations
13 | XGTACX_negctrl_site280 (dsDNA) DNA 1: AATTAATATATAAATAATAAAAAAAAATATATAAAC DNA 2: GTTTATATATTTTTTTTTATTATTTATATATTAATT | 9.42 ln median PBM intensity, better of two orientations
14 | XGTACX_negctrl_site148 (dsDNA) DNA 1: TTAAAACATATTTTGAATTAATATATTTTAATATTA DNA 2: TAATATTAAAATATATTAATTCAAAATATGTTTTAA | 9.55 ln median PBM intensity, better of two orientations
15 | XGTACX_negctrl_site367 (dsDNA) DNA 1: ATAAAATGATGTATCTGTGTATGTTTATTTTGTTTT DNA 2: AAAACAAAATAAACATACACAGATACATCATTTTAT | 9.53 ln median PBM intensity, better of two orientations
16 | XGTACX_negctrl_site397 (dsDNA) DNA 1: TTTTTTTTCAATCTCTATATATTAAGGTTTATATTT DNA 2: AAATATAAACCTTAATATATAGAGATTGAAAAAAAA | 9.41 ln median PBM intensity, better of two orientations
17 | XGTACX_negctrl_site375 (dsDNA) DNA 1: AAATAAAATATATACATATATATATTATTTAGTAAT DNA 2: ATTACTAAATAATATATATATGTATATATTTTATTT | 9.35 ln median PBM intensity, better of two orientations
18 | XGTACX_negctrl_site482 (dsDNA) DNA 1: AGAAAAAACAAAAGAGAAATGAAAAAAAAAAAAAAA DNA 2: TTTTTTTTTTTTTTTCATTTCTCTTTTGTTTTTTCT | 9.54 ln median PBM intensity, better of two orientations
19 | XGTACX_negctrl_site340 (dsDNA) DNA 1: AAAAAATAAATAAACATAAATAAATAAATAAATATA DNA 2: TATATTTATTTATTTATTTATGTTTATTTATTTTTT | 9.52 ln median PBM intensity, better of two orientations
20 | XGTACX_negctrl_site416 (dsDNA) DNA 1: TATTTCAAAATAAAATAAAATATATATATATGTATA DNA 2: TATACATATATATATATTTTATTTTATTTTGAAATA | 9.38 ln median PBM intensity, better of two orientations
21 | XGTACX_negctrl_site431 (dsDNA) DNA 1: TTATTAAAATATACATTTGAAAGTAATCTTATTTAA DNA 2: TTAAATAAGATTACTTTCAAATGTATATTTTAATAA | 9.42 ln median PBM intensity, better of two orientations
22 | XGTACX_negctrl_site612 (dsDNA) DNA 1: TAAACATTTTTAATTTTGTAAAATTTTAAATAAAAA DNA 2: TTTTTATTTAAAATTTTACAAAATTAAAAATGTTTA | 9.56 ln median PBM intensity, better of two orientations

Row | Binder | binding signal
23 | XGTACX_negctrl_site539 (dsDNA) DNA 1: TAAGGATAAATAAAATGAAATGAAATAAATAAATGA DNA 2: TCATTTATTTATTTCATTTCATTTTATTTATCCTTA | 9.56 ln median PBM intensity, better of two orientations
24 | XGTACX_negctrl_site550 (dsDNA) DNA 1: ACGTAATTAATTCATCAGATATAATTAATAATAATA DNA 2: TATTATTATTAATTATATCTGATGAATTAATTACGT | 9.41 ln median PBM intensity, better of two orientations
25 | XGTACX_negctrl_site55 (dsDNA) DNA 1: ATGGAATATTTCATGATTTTTTTAATTTTTTTATTG DNA 2: CAATAAAAAAATTAAAAAAATCATGAAATATTCCAT | 9.52 ln median PBM intensity, better of two orientations
26 | XGTACX_negctrl_site342 (dsDNA) DNA 1: ATGAACGGAAAAATATATATAAATATATATATCATG DNA 2: CATGATATATATATTTATATATATTTTTCCGTTCAT | 9.47 ln median PBM intensity, better of two orientations
27 | XGTACX_negctrl_site357 (dsDNA) DNA 1: ATAATTATATAAATATATATAATATATATATGAAAA DNA 2: TTTTCATATATATATTATATATATTTATATAATTAT | 9.61 ln median PBM intensity, better of two orientations
28 | XGTACX_negctrl_site402 (dsDNA) DNA 1: AAAAGAATAATAATTTATGTATATTAATTAAAGAAT DNA 2: ATTCTTTAATTAATATACATAAATTATTATTCTTTT | 9.4 ln median PBM intensity, better of two orientations
29 | XGTACX_negctrl_site42 (dsDNA) DNA 1: AATGAATAACAATACTATATGATTTTTAATACATTA DNA 2: TAATGTATTAAAAATCATATAGTATTGTTATTCATT | 9.52 ln median PBM intensity, better of two orientations
30 | XGTACX_negctrl_site466 (dsDNA) DNA 1: TTTATATTTATATAAATATAATATATATGAATTATA DNA 2: TATAATTCATATATATTATATTTATATAAATATAAA | 9.51 ln median PBM intensity, better of two orientations
31 | XGTACX_negctrl_site85 (dsDNA) DNA 1: TACATATTTTGTATATATTATTTATTTTATTAGTTT DNA 2: AAACTAATAAAATAAATAATATATACAAAATATGTA | 9.55 ln median PBM intensity, better of two orientations
32 | XGTACX_negctrl_site296 (dsDNA) DNA 1: AATGAATTTAATTCTACTATTTTTTTTTTAAATATT DNA 2: AATATTTAAAAAAAAAATAGTAGAATTAAATTCATT | 9.5 ln median PBM intensity, better of two orientations
33 | XGTACX_negctrl_site114 (dsDNA) DNA 1: TATTATTGTCATTTTTTTTTTTTTTTTTTCTATTTC DNA 2: GAAATAGAAAAAAAAAAAAAAAAAATGACAATAATA | 9.51 ln median PBM intensity, better of two orientations
34 | XGTACX_negctrl_site44 (dsDNA) DNA 1: AAATTAAAATAATAATTCTACAAATTAATTTATCAT DNA 2: ATGATAAATTAATTTGTAGAATTATTATTTTAATTT | 9.42 ln median PBM intensity, better of two orientations
35 | XGTACX_negctrl_site67 (dsDNA) DNA 1: AACAAATAAAGCTATGACATGTTAAAATTGTTTCAC DNA 2: GTGAAACAATTTTAACATGTCATAGCTTTATTTGTT | 9.59 ln median PBM intensity, better of two orientations
36 | XGTACX_negctrl_site318 (dsDNA) DNA 1: GAAAAAAGGAAATAAAGAAAAAAAAAAATGAAATAT DNA 2: ATATTTCATTTTTTTTTTTCTTTATTTCCTTTTTTC | 9.53 ln median PBM intensity, better of two orientations
37 | XGTACX_negctrl_site400 (dsDNA) DNA 1: AATAATGAAACAGGAAAAAAATATTGTTAAAATGTA DNA 2: TACATTTTAACAATATTTTTTTCCTGTTTCATTATT | 9.6 ln median PBM intensity, better of two orientations
38 | XGTACX_negctrl_site205 (dsDNA) DNA 1: AACAATATATTGATATTATTTTAAGTGATTATATAT DNA 2: ATATATAATCACTTAAAATAATATCAATATATTGTT | 9.41 ln median PBM intensity, better of two orientations
39 | XGTACX_negctrl_site407 (dsDNA) DNA 1: AATATATATATAAATAATATACCTATATATTTTTTG DNA 2: CAAAAAATATATAGGTATATTATTTATATATATATT | 9.52 ln median PBM intensity, better of two orientations
40 | XGTACX_negctrl_site479 (dsDNA) DNA 1: AATCAATTAATATTAGCATAAAATTTTATTATTTTG DNA 2: CAAAATAATAAAATTTTATGCTAATATTAATTGATT | 9.57 ln median PBM intensity, better of two orientations
41 | XGTACX_negctrl_site143 (dsDNA) DNA 1: TATTTCGTAATTTAATAATATACAAGAAATATATAT DNA 2: ATATATATTTCTTGTATATTATTAAATTACGAAATA | 9.58 ln median PBM intensity, better of two orientations
42 | XGTACX_negctrl_site452 (dsDNA) DNA 1: TATCTCTACAAAATTTTATTCATTATTCATGTTATA DNA 2: TATAACATGAATAATGAATAAAATTTTGTAGAGATA | 9.53 ln median PBM intensity, better of two orientations
43 | XGTACX_negctrl_site582 (dsDNA) DNA 1: TATTAAAAGAAAAAAAAAAAAAAATTAATACATATA DNA 2: TATATGTATTAATTTTTTTTTTTTTTTCTTTTAATA | 9.38 ln median PBM intensity, better of two orientations
